Test results taken from patent US20030113828A1, “Compositions and methods for modulating Syk function” (priority 2001, published 2003).

Biological target: T1, integrin β3 cytoplasmic tail (Homo sapiens, UniProt P05106)
T1 construct: made in house
T1 sequence (P05106 742-788 limits assumed): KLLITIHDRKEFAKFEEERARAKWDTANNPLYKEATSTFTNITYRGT
Test: Affinity chromatography/direct binding of kinase fragments to integrin tail
Conditions: recombinant fragments, direct binding assay
Method: Following incubation, beads were washed and bound protein was analyzed by immunoblotting.
For direct binding assays, model peptides (1 mg) were dissolved in 1 ml buffer containing 20 mM Tris (pH 7.9), 500 mM NaCl, and 6 M urea. To this, 50 ul packed His-Bind® Resin (Novagen, Madison, Wis.) was added and the mixture was rotated for 1 hour at room temperature. Immobilized peptides were washed 5× in above buffer without urea, and resuspended in 500 μl buffer containing 20 mM PIPES pH 6.8, 50 mM NaCl, 3 mM MgCl2, 150 mM sucrose, 50 mM NaF, 40 mM Na4P2O7*10H2O (buffer A) supplemented with 0.1% TritonX-100 and 3 mM MgCl2. Purified GST-fusion proteins were added to 0.5 ml buffer A supplemented with 0.1% TritonX-100 and 3 mM MgCl2. Five μl of total packed resin loaded with various integrin cytoplasmic domain model proteins was added to the GST-fusion protein. The mixture was incubated for 40 minutes at room temperature with continuous rotation. The beads were then washed five times in buffer A with 0.1% TritonX-100 and 3 mM MgCl2. Bound proteins were eluted by boiling in reducing sample buffer, fractionated by SDS PAGE, and immuno-blotted.

B1: Zap-70(1-337): Zap-70 fragment containing both SH2 and interdomains A and B (protein)
chain: MPDPAAHLPFFYGSISRAEAEEHLKLAGMADGLFLLRQCLRSLGGYVLSLVHDVRFHHFPIERQLNGTYAIAGGKAHCGPAELCEFYSRDPDGLPCNLRKPCNRPSGLEPQPGVFDCLRDAMVRDYVRQTWKLEGEALEQAIISQAPQVEKLIATTAHERMPWYHSSLTREEAERKLYSGAQTDGKFLLRPRKEQGTYALSLIYGKTVYHYLISQDKAGKYCIPEGTKFDTLWQLVEYLKLKADGLIYCLKEACPNSSASNASGAAAPTLPAHPSTLTHPQRRIDTLNSDGYTPEPARITSPDKPRPMPMDTSVYESPYSDPEELKDKKLFLKRDNL
modifications: left off: a dimerising Fc or GST
notes: Zap-70 fragment containing both SH2 and interdomains A and B
binding to the β3 tail: bound

B2: Zap-70(1-132): Zap-70 truncation lacking the C-terminal half of interdomain A (protein)
chain: MPDPAAHLPFFYGSISRAEAEEHLKLAGMADGLFLLRQCLRSLGGYVLSLVHDVRFHHFPIERQLNGTYAIAGGKAHCGPAELCEFYSRDPDGLPCNLRKPCNRPSGLEPQPGVFDCLRDAMVRDYVRQTWK
binding to the β3 tail: decrease in binding
